Non-standard residues stand in square brackets, D forms with d. No end group written: not given here. pS = N[C@@H](COP(=O)(O)O)C(=O)O

As a reminder, the Kd is the free concentration of one partner at which half of the binding sites on the other are occupied at equilibrium, for simple one-to-one binding. Higher therefore signals a looser complex.

The assay has as its target 15N-WW domain of Pin1 (tag removed) (UniProt Q13526 5-39, 15N-labelled). Kind of assay: NMR titration.

15N-WW domain of Pin1 (tag removed), sequence (Q13526 5-39): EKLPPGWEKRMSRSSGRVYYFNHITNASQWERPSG

The molecule STFL[pS]PAFPGS [IRAK1 phosphopeptide 140-150 (pSer144-P145)] registered a Kd of 120 ± 12 µM.
Molecule ELGLVPSPASLWPPPP[pS]PAPSSTK [IRAK1 phosphopeptide 157-180 (pSer173-P174)] had a Kd of 260 ± 75 µM.
Consider EAEAW[pS]PRKLP [IRAK1 phosphopeptide 126-136 (pSer131-P132)], for which the affinity, expressed as Kd, was 220 ± 15 µM.

The values above are taken from article PMC3298750 (Nature immunology, 2011).
